In the supplement of paper PMC10567573:

B1: ANKRD40 (parent)
chain: VRIQNPSLRENDFIEIELDRQELT

Variants of: B1
Assay: protein stability index of a GFP-peptide fusion (GPS, HEK-293T) (PSI 1-6); higher = more stable
Settings: c terminus: a fixed tail appended
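Also: lentivirally expressed fusions sorted by FACS into six bins by GFP to DsRed ratio, PSI derived from sequencing read proportions per bin multiplied by bin number.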

Point of comparison: VRIQNPSLRENDSIEIELDRQELT [F13S], protein stability index 4.39. Against it:
- VRIQNPSLRENLFIEIELDRQELT [D12L] — lower, 2.01
- VRIQNPSLRENVFIEIELDRQELT [D12V] — lower, 2.2
- VRIQNPSLRENHFIEIELDRQELT [D12H] — lower, 2.11
- VRIQNPSLRENEFIEIELDRQELT [D12E] — lower, 2.29
- VRIQNPSLRENQFIEIELDRQELT [D12Q] — lower, 2.1
- VRIQNPSLRENRFIEIELDRQELT [D12R] — lower, 2.97
- VRIQNPSLRENSFIEIELDRQELT [D12S] — lower, 1.83
- VRIQNPSLRENFFIEIELDRQELT [D12F] — lower, 2.14
- VRIQNPSLRENIFIEIELDRQELT [D12I] — lower, 2.08
- VRIQNPSLRENGFIEIELDRQELT [D12G] — lower, 1.68
- VRIQNPSLRENWFIEIELDRQELT [D12W] — lower, 2.37
- VRIQNPSLRENAFIEIELDRQELT [D12A] — lower, 1.81
- VRIQNPSLRENMFIEIELDRQELT [D12M] — lower, 3.11
- VRIQNPSLRENNFIEIELDRQELT [D12N] — lower, 2.64
- VRIQNPSLRENYFIEIELDRQELT [D12Y] — lower, 1.06
- VRIQNPSLRENCFIEIELDRQELT [D12C] — lower, 2.46
- VRIQNPSLRENKFIEIELDRQELT [D12K] — lower, 2.61
- VRIQNPSLRENTFIEIELDRQELT [D12T] — lower, 1.66
- VRIQNPSLRENPFIEIELDRQELT [D12P] — lower, 2.58
- VRIQNPSLREFDFIEIELDRQELT [N11F] — lower, 1.69
- VRIQNPSLREYDFIEIELDRQELT [N11Y] — lower, 1.71
- VRIQNPSLREADFIEIELDRQELT [N11A] — lower, 2.18
- VRIQNPSLREMDFIEIELDRQELT [N11M] — lower, 1.99
- VRIQNPSLREKDFIEIELDRQELT [N11K] — lower, 2.94
- VRIQNPSLREEDFIEIELDRQELT [N11E] — lower, 1.79
- VRIQNPSLREGDFIEIELDRQELT [N11G] — lower, 2.32
- VRIQNPSLREDDFIEIELDRQELT [N11D] — lower, 2.08
- VRIQNPSLREVDFIEIELDRQELT [N11V] — lower, 1.97
- VRIQNPSLRELDFIEIELDRQELT [N11L] — lower, 1.7
- VRIQNPSLREPDFIEIELDRQELT [N11P] — lower, 2.73
- VRIQNPSLRECDFIEIELDRQELT [N11C] — lower, 1.69
- VRIQNPSLREHDFIEIELDRQELT [N11H] — lower, 2.39
- VRIQNPSLRETDFIEIELDRQELT [N11T] — lower, 2.47
- VRIQNPSLRERDFIEIELDRQELT [N11R] — lower, 2.63
- VRIQNPSLREIDFIEIELDRQELT [N11I] — lower, 1.94
- VRIQNPSLRESDFIEIELDRQELT [N11S] — lower, 2.58
- VRIQNPSLREWDFIEIELDRQELT [N11W] — lower, 1.41
- VRIQNPSLREQDFIEIELDRQELT [N11Q] — lower, 2.54
- VRIQNPSLRENDFIEIELDKQELT [R20K] — lower, 2.75
- VRIQNPSLRENDFIEIELDGQELT [R20G] — lower, 2.56
- VRIQNPSLRENDFIEIELDAQELT [R20A] — lower, 2.31
- VRIQNPSLRENDFIEIELDNQELT [R20N] — lower, 2.77
- VRIQNPSLRENDFIEIELDCQELT [R20C] — lower, 2.12
- VRIQNPSLRENDFIEIELDDQELT [R20D] — lower, 2.75
- VRIQNPSLRENDFIEIELDEQELT [R20E] — lower, 2.42
- VRIQNPSLRENDFIEIELDSQELT [R20S] — lower, 2.08
- VRIQNPSLRENDFIEIELDQQELT [R20Q] — lower, 2.57
- VRIQNPSLRENDFIEIELDMQELT [R20M] — lower, 2.92
- VRIQNPSLRENDFIEIELDHQELT [R20H] — lower, 2.32
- VRIQNPSLRENDFIEIELDPQELT [R20P] — lower, 1.76
- VRIQNPSLRENDFIEIELDLQELT [R20L] — lower, 2.81
- VRIQNPSLRENDFIEIELDTQELT [R20T] — lower, 1.78
- VRIQNPSLRENDFIEIELDFQELT [R20F] — lower, 2.96
- VRIQNPSLRENDFIEIELDIQELT [R20I] — lower, 2.82
- VRIQNPSLRENDQIEIELDRQELT [F13Q] — lower, 4.32
- VRIQNPSLRENDIIEIELDRQELT [F13I] — lower, 2.36
- VRIQNPSLRENDEIEIELDRQELT [F13E] — higher, 4.6
- VRIQNPSLRENDYIEIELDRQELT [F13Y] — lower, 2.42
- VRIQNPSLRENDAIEIELDRQELT [F13A] — lower, 3.81
- VRIQNPSLRENDPIEIELDRQELT [F13P] — higher, 4.53
- VRIQNPSLRENDNIEIELDRQELT [F13N] — lower, 4.18
- VRIQNPSLRENDGIEIELDRQELT [F13G] — lower, 4.11
- VRIQNPSLRENDHIEIELDRQELT [F13H] — lower, 4.08
- VRIQNPSLRENDLIEIELDRQELT [F13L] — lower, 3.42
- VRIQNPSLRENDTIEIELDRQELT [F13T] — lower, 3.76
- VRIQNPSLRENDDIEIELDRQELT [F13D] — higher, 4.61
- VRIQNPSLRENDCIEIELDRQELT [F13C] — lower, 3.15
- VRIQNPSLRENDVIEIELDRQELT [F13V] — lower, 3.41
- VRIQNPSLRENDRIEIELDRQELT [F13R] — lower, 3.43
- VRIQNPSLRENDMIEIELDRQELT [F13M] — lower, 3.21
- VRIQNPSLRENDWIEIELDRQELT [F13W] — lower, 2.44
- VRIQNPSLRENDKIEIELDRQELT [F13K] — lower, 3.72
- VRIQNPSLRENDFIEIELSRQELT [D19S] — lower, 1.92
- VRIQNPSLRENDFIEIELHRQELT [D19H] — lower, 1.69
- VRIQNPSLRENDFIEIELRRQELT [D19R] — lower, 2.41
- VRIQNPSLRENDFIEIELIRQELT [D19I] — lower, 1.91
- VRIQNPSLRENDFIEIELERQELT [D19E] — lower, 2.8
- VRIQNPSLRENDFIEIELVRQELT [D19V] — lower, 1.92
- VRIQNPSLRENDFIEIELKRQELT [D19K] — lower, 2.24
- VRIQNPSLRENDFIEIELLRQELT [D19L] — lower, 2.22
- VRIQNPSLRENDFIEIELFRQELT [D19F] — lower, 1.56
- VRIQNPSLRENDFIEIELTRQELT [D19T] — lower, 1.94
- VRIQNPSLRENDFIEIELYRQELT [D19Y] — lower, 1.83
- VRIQNPSLRENDFIEIELMRQELT [D19M] — lower, 1.65
- VRIQNPSLRENDFIEIELGRQELT [D19G] — lower, 1.8
- VRIQNPSLRENDFIEIELNRQELT [D19N] — lower, 1.94
- VRIQNPSLRENDFIEIELPRQELT [D19P] — lower, 2.65
- VRIQNPSLRENDFIEIELQRQELT [D19Q] — lower, 2.42
- VRIQNPSLRENDFIEIELCRQELT [D19C] — lower, 1.89
- VRIQNPSLRENDFIEIELWRQELT [D19W] — lower, 1.54
- VRIQNPSLRENDFIEIELARQELT [D19A] — lower, 1.93
- VRIQNPSLRYNDFIEIELDRQELT [E10Y] — lower, 1.51
- VRIQNPSLRENDFIEQELDRQELT [I16Q] — higher, 4.68
